B1: TPR t1 (parent)
chain: GACCAAUCUGCCCUCAGAGCUCGAGAACAUCUUCGGAUGCAGAGGAGGCAGGCUUCGGUGGCGCGAUAGCGCCAACGUCCUCAACCUCCAAUGCAUCCCACCACAUGAUGAUGCCUGAAGAGCCUUGGUUUUUUG

Variants of: B1
Experiment: polymerase ribozyme fitness, log enrichment relative to wild type (log ratio); higher = more active; in vitro selection for triplet polymerase activity
Procedure, shortened: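 Mutant libraries of both subunits of a heterodimeric triplet polymerase ribozyme were PCR-built, transcribed, and selected once in triplicate, with frozen incubation at −7 °C and capture of gel-excised extended constructs on streptavidin beads before RT-PCR. Illumina sequencing of input and output libraries was filtered to genotypes with ≥10 input reads and ≥1 read per output. Fitness is the logarithm of genotype enrichment over wild-type enrichment, using inverse-variance-weighted replicate averages. The logarithm is base 2.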

Variant	polymerase ribozyme fitness (log ratio)
U59A A111C G120A	-0.645
C53A C98A	-5.56
U9A C62U G63A A95C A103G U109A	-7.15
C53U G60U C101G	-1.27
A41U C49U	-2.03
A2C A5C C64U C114G C124A	-3.6
U9G A50C G63C	-1.21
C72U C114U C115U	-7
G69A C72U	-1.06
A27G C34U C72U C86A U112A U133C	-2.87
C4G C56U	-1.92
A5U C62U	-0.31
C73U A95C U130A	-1.26
G61C A84G U109G	-6.69
G47U G51A G61U C79G G93A G113C C114G	-6.6
U54A G110A	-1.52
A5U A95C	-1.24
C62U G128U	-1.78
G10A C72A	0.427
U9A U14A A75U C124U G127C	-0.619
C12U G60A G69A	-4.56
G63C C123G	0.737
G19U C76U	-4.25
G45U U87A	-1.32

Variant	polymerase ribozyme fitness (log ratio)
U78C A83C C89G	-2.02
C34U C104U U112C	-2.1
C49G C64G G120U C124A G135U	-7.53
G17A G39U	-3.39
G48U G63A G110U	-4.15
C34G G45C G69A A90U U92A G113A	-7.28
C8A C40U	-0.324
C64U C101U	0.0607
C13G G60U	-2.05
C12U C49A C115U	-1.47
C12U C62U G69A	-3.66
A5C C13A C94A U112G	-2.97
G51U C56A C62U U92A C101U	-6.34
A41C G52A A74U C88U	-2.04
C3U G60A U92A	-3.06
G60C G135U	-1.23
G61U C114U	-0.943
C34A A66U C101U	-5.31
G61U U129G U133A	-2.01
G36C C98U U129A	-3.81
A41C G47C C49U C86A	-2.65
C11U C22G C40U U106G	-4.43
C40A G120A	-0.957
A41U C94G	-1.87

Variant	polymerase ribozyme fitness (log ratio)
C11G G45A G52U C101A U106A A121U	0.469
A103U G120A C123U	-4.53
G113A C123G	-0.469
C12A G36U C64U A83G G113A	-4.18
G19A A37C G61U G120C	-2.13
C22G A26C C31G G45U G60U	-8.09
C8G G10U G69U U81C	-0.318
G71C C114A G127U	-5.17
G39C U112A	0.828
C8A A43C A46U C86U U96A	-3.85
C20A C115G	-4.5
C20G U112A	-2.38
C13G C56G	-2.09
U7A A16G U55G G61C C82U	-1.41
C12A A16G G36U	-4.37
C34U G120C	-3.96
U21C C62U A83U U87G	0.103
C72U U78C A83C	-0.433
U21C A46G C53A G71C C98U	-6.73
U59A U116G G120C	-0.387
U7C C15A A46U G48U U130C	-2.63
C13A U32C C49U G61A G77C U92C	-3.43
C3U A6U G45U C72G C79G C114A	-5.66
U55C C70U	-0.302

Variant	polymerase ribozyme fitness (log ratio)
A46C C49A G63A	-0.445
G10A U21A A27G C53A	-0.87
G63U U78A A90U C94U G122U	-3.99
U129C U130A	-0.859
C8A G93A G117U G128U	-4.74
A68G A100C	-4.96
A27G C102U A103G U112G	-7.77
C15U U59G U96C C102A G120C U133A	-2.28
A2G C88A A100U C115U	-3.59
C76U A83U	-0.0435
C22G C70A	-4.66
U9A C11G C15G A91C G93A	-3.49
G71A C86A	-1.85
A6U C86U	-0.389
U59A C72U A83C	-0.884
C12A C49U U109A U116A C123G	-6.73
G47C C70A	-5.04
A43U A74U C104U C115U	-3.23
G47U C72A	-0.885
A26G G48A C49G C73U A121U	-0.344
G47C A90G G117C	-4.53
C12A G17A	-4.31
A5U G44C C70U A84C C104A G117C	-7.15
C8A C79U	0.419

Variant	polymerase ribozyme fitness (log ratio)
G93A U131C	-0.974
U7C	0.304
C53U C72A C123A G128U	-0.319
A16C C101U	-2.45
C28G A50G G69U	-0.817
G110C	-3.75
A6C A68G	-3.13
G47U A111G	-0.984
G42A G48U	-2.42
A43C C53U G110C	-7.24
C28A G39U U54C	-4.55
U9G U109A G120C	-4.55
A84U U129A	-1.65
U21C A24G A26G C53G G60U	-5.16
U55G C72A U106G G113U U133A	-5.76
C8G C86G C89U G93A	-0.898
G19C C20A G71A A95U C102U U116C C123U U126G	-6.03
A5C G10A C34A G63U	-4.64
C4G U78C U112G	-1.83
G45U C53A G69A C89A C104U C124A G135A	-6.34
U87G C104U G117A	-3.2
C85A G128U	-4.02
A6U U30C G39U C97U C104U	-4
A18G C82A C94U	-4.18

Variant	polymerase ribozyme fitness (log ratio)
A18U G45A C73U	-2.84
G45A U59G C62G	-3.84
C22G G93A	-3.42
C4U A43C G45A A74U C124A	-2.29
A6U G10A C22U C82A	-5.33
A6G C12A G23C A66G C114U G128A	-5.09
C49A G51C G57C C72U C115G	-3.69
C4A A50G C70U A84C C115A	-2.59
C79A C115G	-2.56
U109A U116G	-5.73
G61A G93C C97A C104A	-6.04
C8U G63A	0.00664
C15U C72U G110C	-5.35
A2U A5G U9G A41C	-2.01
A74U C123U	0.766
G44C U112G	-1.07
C31U G63A C85U C124G	-4.75
C3U G58A C101G	-2.57
G58C A111G G120A	-1.36
C12G G45U C101U A118U	-0.398
A5U A74C G122A	-1.42
C8G A29U	-1.15
C53G C64U A118G C123U	-1.6
G52U C72U A121C	0.242

Variant	polymerase ribozyme fitness (log ratio)
A95C G113U G120C U125A	-3.79
G45C C104A G120A	-1.45
A6U C8G C72U C86G	-0.629
C101A G135U	-2.11
C62U C115A	0.00277
G45C G63A U106A	-1.21
C8G C34U C53G A90U G120A	-5.88
C72U A84C	0.0877
A41C G69U C79G U106A A121U U126G	-0.691
C72A C114A	-1.85
C12U C115A	0.202
G47U C79U	-1.85
G69U G120U U132C	1.03
U81G U106G C124U	-5.53
C15U A90U	-2.96
C89G C124U	0.383
A24G A75U	-2.53
G52A A74G C79G U96G	-0.912
C20G C56G	-4.45
C11A C12A	-1.15
C79G G122A	-2.11
G51U C124U	-2.88
C73U A103U	-4.35

Reference: the RNAGym collection of RNA variant scans (doi:10.1073/pnas.2313332121)
